Experimental data: patent US20050100554A1 (published 2005)

T1: EphB1 (human, UniProt P54762 18-984)
T1 construct: also called cbe_3810791
T1 sequence: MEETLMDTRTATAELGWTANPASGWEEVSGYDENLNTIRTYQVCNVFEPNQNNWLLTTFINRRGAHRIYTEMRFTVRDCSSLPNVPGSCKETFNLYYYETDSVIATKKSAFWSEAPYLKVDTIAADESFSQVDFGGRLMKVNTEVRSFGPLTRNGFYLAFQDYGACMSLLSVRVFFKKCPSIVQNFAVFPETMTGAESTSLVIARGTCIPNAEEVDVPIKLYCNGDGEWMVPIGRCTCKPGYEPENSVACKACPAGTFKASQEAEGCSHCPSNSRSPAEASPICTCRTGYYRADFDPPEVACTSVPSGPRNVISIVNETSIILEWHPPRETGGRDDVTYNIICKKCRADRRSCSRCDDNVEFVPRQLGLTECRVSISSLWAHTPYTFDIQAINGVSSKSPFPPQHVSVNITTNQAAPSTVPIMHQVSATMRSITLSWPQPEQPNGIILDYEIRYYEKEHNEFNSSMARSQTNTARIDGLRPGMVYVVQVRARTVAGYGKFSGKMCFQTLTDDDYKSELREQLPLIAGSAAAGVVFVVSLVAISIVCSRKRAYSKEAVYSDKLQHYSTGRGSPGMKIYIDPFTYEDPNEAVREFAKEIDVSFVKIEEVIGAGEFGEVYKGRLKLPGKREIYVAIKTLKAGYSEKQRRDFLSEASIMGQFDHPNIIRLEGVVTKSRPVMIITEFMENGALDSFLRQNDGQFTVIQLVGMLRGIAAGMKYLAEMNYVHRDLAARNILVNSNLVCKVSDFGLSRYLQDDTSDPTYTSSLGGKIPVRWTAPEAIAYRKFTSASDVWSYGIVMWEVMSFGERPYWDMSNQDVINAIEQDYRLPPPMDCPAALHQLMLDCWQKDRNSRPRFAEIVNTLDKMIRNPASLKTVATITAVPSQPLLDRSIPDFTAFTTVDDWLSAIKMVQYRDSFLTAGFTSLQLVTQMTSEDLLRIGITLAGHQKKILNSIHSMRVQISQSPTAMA

T2: pumilio homolog 1 (Drosophila) (human, UniProt Q14671 2-1186)
T2 construct: also called PUM1; cbe_4540466
T2 sequence: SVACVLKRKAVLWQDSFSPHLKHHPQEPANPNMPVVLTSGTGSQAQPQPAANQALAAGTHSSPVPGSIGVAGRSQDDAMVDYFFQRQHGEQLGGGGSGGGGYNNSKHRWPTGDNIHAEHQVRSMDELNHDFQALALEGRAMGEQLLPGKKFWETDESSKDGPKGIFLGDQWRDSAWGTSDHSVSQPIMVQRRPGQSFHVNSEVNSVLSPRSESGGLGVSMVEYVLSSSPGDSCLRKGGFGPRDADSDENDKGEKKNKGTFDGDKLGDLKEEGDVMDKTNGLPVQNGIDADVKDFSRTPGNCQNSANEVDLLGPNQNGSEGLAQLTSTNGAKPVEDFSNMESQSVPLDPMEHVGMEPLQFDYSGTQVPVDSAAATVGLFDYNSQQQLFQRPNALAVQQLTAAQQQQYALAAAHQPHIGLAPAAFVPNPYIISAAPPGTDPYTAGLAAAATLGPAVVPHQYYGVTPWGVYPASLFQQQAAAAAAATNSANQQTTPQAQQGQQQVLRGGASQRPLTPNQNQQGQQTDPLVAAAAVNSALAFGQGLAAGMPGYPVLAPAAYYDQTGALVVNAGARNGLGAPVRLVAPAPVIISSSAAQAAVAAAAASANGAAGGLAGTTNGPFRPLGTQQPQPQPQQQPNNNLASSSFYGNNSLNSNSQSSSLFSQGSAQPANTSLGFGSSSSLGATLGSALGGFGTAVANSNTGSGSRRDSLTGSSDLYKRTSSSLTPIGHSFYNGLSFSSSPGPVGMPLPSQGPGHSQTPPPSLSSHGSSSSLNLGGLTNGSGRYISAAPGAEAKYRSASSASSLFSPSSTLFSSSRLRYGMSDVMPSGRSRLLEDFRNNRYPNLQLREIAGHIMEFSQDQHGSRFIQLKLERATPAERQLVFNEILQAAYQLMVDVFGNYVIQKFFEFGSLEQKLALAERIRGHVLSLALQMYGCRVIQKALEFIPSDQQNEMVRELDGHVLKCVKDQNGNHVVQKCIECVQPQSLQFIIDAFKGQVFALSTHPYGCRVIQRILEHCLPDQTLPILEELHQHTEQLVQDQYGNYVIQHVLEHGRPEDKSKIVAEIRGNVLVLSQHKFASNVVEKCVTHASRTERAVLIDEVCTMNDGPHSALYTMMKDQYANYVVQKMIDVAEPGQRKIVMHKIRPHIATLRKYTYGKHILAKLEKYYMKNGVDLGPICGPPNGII

T3: hypothetical protein FLJ20259 (human, UniProt Q2TAL8 1-776)
T3 construct: also called cbe_1469980
T3 sequence: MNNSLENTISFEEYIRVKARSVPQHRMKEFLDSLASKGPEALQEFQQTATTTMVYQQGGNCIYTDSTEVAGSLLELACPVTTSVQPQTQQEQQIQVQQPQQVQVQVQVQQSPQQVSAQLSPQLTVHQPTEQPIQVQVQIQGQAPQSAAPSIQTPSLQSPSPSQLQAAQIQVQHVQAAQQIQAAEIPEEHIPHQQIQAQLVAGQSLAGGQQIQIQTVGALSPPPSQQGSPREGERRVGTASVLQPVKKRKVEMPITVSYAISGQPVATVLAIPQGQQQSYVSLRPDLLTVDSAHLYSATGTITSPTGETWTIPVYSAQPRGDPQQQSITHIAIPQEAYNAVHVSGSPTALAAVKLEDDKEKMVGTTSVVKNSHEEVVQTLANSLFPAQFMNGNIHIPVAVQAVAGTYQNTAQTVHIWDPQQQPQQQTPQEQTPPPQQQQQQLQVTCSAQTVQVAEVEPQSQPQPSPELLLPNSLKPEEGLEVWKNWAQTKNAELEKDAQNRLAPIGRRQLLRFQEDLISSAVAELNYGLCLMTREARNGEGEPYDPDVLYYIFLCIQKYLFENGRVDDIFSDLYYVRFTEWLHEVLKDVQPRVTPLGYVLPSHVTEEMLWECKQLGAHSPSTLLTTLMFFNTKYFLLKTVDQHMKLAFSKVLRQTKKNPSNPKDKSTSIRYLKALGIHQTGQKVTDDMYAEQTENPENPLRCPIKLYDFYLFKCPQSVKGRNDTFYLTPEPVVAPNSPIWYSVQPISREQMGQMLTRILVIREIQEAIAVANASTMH

T4: testis-specific protein NYD-TSP1 (human, UniProt Q9BXG8 1-430)
T4 construct: also called Hs.98226; cbe_3826540
T4 sequence: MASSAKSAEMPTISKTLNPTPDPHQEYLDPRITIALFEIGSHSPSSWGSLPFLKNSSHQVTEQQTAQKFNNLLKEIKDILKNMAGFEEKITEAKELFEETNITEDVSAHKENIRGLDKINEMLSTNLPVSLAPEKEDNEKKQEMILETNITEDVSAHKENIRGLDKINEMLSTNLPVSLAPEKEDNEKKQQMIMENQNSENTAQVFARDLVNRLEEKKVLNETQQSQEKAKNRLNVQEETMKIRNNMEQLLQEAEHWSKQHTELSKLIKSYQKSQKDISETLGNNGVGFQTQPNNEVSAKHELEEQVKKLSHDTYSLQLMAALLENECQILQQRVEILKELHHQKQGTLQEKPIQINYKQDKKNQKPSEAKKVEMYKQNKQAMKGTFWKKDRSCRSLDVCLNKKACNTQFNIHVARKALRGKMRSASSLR

B1: Human Papillomavirus 1a L2 (other)
chain: MYRLRRKRAAPKDIYPSCKISNTCPPDIQNKIEHTTIADKILQYGSLGVFLGGLGIGTARGSGGRIGYTPLGEGGGVRVATRPTPVRPTIPVETVGPSEIFPIDVVDPTGPAVIPLQDLGRDFPIPTVQVIAEIHPISDIPNIVASSTNEGESAILDVLRGNATIRTVSRTQYNNPSFTVASTSNISAGEASTSDIVFVSNGSGDRVVGEDIPLVELNLGLETDTSSVVQETAFSSSTPIAERPSFRPSRFYNRRLYEQVQVQDPRFVEQPQSMVTFDNPAFEPELDEVSIIFQRDLDALAQTPVPEFRDVVYLSKPTFSREPGGRLRVSRLGKSSTIRTRLGTAIGARTHFFYDLSSIAPEDSIELLPLGEHSQTTVISSNLGDTAFIQGETAEDDLEVISLETPQLYSEEELLDTNESVGENLQLTITNSEGEVSILDLTQSRVRPPFGTEDTSLHVYYPNSSKGTPIINPEESFTPLVIIALNNSTGDFELHPSLRKRRKRAYV
notes: also called HPV 1a L2; cbe_252041
B2: Prey1053670 (other)
chain: MSSDERKAFLQFTTGCSTLPPGGLANLHPRLTVVRKVDATDASYPSVNTCVHYLKLPEYSSEEIMRERLLAATMEKGFHLN
notes: also called Homo sapiens, Similar to CG5604 gene product, clone MGC:11330; cbe_3606990
B3: RIL (other)
chain: MPHSVTLRGPSPWGFRLVGGRDFSAPLTISRVHAGSKAALAALCPGDLIQAINGESTELMTHLEAQNRIKGCHDHLTLSVSRPEGRSWPSAPDDSKAQAHRIHIDPEIQDGSPTTSRRPSGTGTGPEDGRPSLGSPYGQPPRFPVPHNGSSEATLPAQMSTLHVSPPPSADPARGLPRSRDCRVDLGSEVYRMLREPAEPVAAEPKQSGSFRYLQGMLEAGEGGDWPGPGGPRNLKPTASKLGAPLSGLQGLPECTRCGHGIVGTIVKARDKLYHPECFMCSDCGLNLKQRGYFFLDERLYCESHAKARVKPPEGYDVVAVYPNAKVELV
notes: also called cbe_4269628
B4: Human Papillomavirus 1a E2 (other)
chain: MENLSSRLDLLQEQLMNLYEQDSKLIEDQIKQWNLIRQEQVLFHFARKNGVMRIGLQAVPSLASSQEKAKTAIEMVLHLESLKDSPYGTEDWSLQDTSRELFLAPPAGTFKKSGSTLEVTYDNNPDNQTRHTIWNHVYYQNGDDVWRKVSSGVDAVGVYYLEHDGYKNYYVLFAEEASKYSTTGQYAVNYRGKRFTNVMSSTSSPRAAGAPAVHSDYPTLSESDTAQQSTSIDYTELPGQGETSQVRQRQQKTPVRRRPYGRRRSRSPRGGGRREGESTPSRTPGSVPSARDVGSIHTTPQKGHSSRLRRLLQEAWDPPVVCVKGGANQLKCLRYRLKASTQVDFDSISTTWHWTDRKNTERIGSARMLVKFIDEAQREKFLERVALPRSVSVFLGQFNGS
notes: also called HPV 1a E2; cbe_251917

Assays:
[1] = target: T1, EphB1; test: Y2H; INT ID 448
[2] = target: T5, GSN (human, UniProt P06396 28-782); test: Y2H; INT ID 449
T5 construct: also called cbe_4248793
T5 sequence (P06396 28-782 limits assumed): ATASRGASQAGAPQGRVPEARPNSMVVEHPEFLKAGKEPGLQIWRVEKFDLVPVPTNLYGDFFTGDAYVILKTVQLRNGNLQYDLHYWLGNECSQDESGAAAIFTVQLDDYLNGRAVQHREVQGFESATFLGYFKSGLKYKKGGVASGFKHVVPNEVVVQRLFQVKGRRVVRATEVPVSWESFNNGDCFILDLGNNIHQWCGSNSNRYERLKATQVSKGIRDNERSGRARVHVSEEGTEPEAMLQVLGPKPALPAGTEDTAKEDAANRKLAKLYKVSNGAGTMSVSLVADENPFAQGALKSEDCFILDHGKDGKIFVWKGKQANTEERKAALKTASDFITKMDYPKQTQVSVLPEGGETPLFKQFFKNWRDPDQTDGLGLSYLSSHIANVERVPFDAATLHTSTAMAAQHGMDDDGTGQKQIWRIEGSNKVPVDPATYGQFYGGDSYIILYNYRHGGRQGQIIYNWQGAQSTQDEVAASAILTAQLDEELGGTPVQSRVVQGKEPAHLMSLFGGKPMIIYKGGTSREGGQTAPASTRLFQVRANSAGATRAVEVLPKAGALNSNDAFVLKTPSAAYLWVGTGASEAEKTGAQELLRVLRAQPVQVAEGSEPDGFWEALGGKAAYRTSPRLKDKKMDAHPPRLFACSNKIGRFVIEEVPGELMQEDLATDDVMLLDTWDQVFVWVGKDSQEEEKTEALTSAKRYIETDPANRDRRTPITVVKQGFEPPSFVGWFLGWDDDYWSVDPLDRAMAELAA

[3] = target: T2, pumilio homolog 1 (Drosophila); test: Y2H; INT ID 452
[4] = target: B1; test: Y2H; INT ID 446
[5] = target: B1; test: Y2H; INT ID 451
[6] = target: T3, hypothetical protein FLJ20259; test: Y2H; INT ID 411
[7] = target: T6, ribosomal protein S10 (human, UniProt P46783 1-165); test: Y2H; INT ID 412
T6 construct: also called RPS10; cbe_2826346

[8] = target: T7, ankylosis, progressive homolog (mouse) (human, UniProt Q9HCJ1 1-492); test: Y2H; INT ID 417
T7 construct: also called ANKH; cbe_3641816
T7 sequence (Q9HCJ1 whole entry): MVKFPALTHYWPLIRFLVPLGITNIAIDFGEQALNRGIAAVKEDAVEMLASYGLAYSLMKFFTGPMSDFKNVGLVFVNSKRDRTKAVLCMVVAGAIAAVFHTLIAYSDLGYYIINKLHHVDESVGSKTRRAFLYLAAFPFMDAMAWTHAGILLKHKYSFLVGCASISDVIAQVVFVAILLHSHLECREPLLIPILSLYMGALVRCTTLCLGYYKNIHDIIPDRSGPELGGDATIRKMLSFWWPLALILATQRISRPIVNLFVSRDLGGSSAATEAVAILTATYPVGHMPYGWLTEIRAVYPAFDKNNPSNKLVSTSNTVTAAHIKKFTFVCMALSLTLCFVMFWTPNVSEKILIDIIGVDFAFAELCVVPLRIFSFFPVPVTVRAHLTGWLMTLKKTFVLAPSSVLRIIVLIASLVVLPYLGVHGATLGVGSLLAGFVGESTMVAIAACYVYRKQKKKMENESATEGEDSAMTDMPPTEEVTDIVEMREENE

[9] = target: T4, testis-specific protein NYD-TSP1; test: Y2H; INT ID 418
[10] = target: T8, GNB2L1 (human, UniProt P63244 1-317); test: Y2H; INT ID 420
T8 construct: also called cbe_4269834

Binder: B1
- binding result [1]: binds
- binding result [2]: binds
- binding result [3]: binds

Binder: B2
- binding result [4]: binds

Binder: B3
- binding result [5]: binds

Binder: B4
- binding result [6]: binds
- binding result [7]: binds
- binding result [8]: binds
- binding result [9]: binds
- binding result [10]: binds
